Data as given in PMC2575085 (Nature structural & molecular biology, 2008).
Where “and” joins values, the source holds several entries; their conditions need not be identical. Equal entries are not always repeated. Where two headings read alike, the source gives them in different places. Each block holds one molecule with its values, some of them ahead of it.

Tests used:
Test in all cases: EPR
[1] = molecular target: Sso1pHT spin-labeled cysteine mutant at position 272 (yeast) (UniProt P32867)
[2] = molecular target: Sso1pHT spin-labeled cysteine mutant at position 272 (yeast) (UniProt P32867); remark: listed apart in the source
[3] = molecular target: Sso1pHT spin-labeled cysteine mutant at position 284 (yeast) (UniProt P32867)
[4] = molecular target: Sso1pHT spin-labeled cysteine mutant at position 284 (yeast) (UniProt P32867); remark: listed apart in the source
[5] = molecular target: Sso1pHT spin-labeled cysteine mutant at position 269 (yeast) (UniProt P32867)
[6] = molecular target: Sso1pHT spin-labeled cysteine mutant at position 269 (yeast) (UniProt P32867); remark: listed apart in the source
[7] = molecular target: the molecule itself

ln K (equilibrium constant of nM to Mn, concentration as protein:lipid ratio) [1]: 18.4
stoichiometry N [1]: 4
stoichiometry N [2]: > 3
Molecule: Sso1pHT spin-labeled cysteine mutant at position 272 (from UniProt P32867 185-290) (domain or fragment)

ln K (equilibrium constant of nM to Mn, concentration as protein:lipid ratio) [3]: 18.4
stoichiometry N [3]: 4
stoichiometry N [4]: > 3
Molecule: Sso1pHT spin-labeled cysteine mutant at position 284 (from UniProt P32867 185-290) (domain or fragment)

ln K (equilibrium constant of nM to Mn, concentration as protein:lipid ratio) [5]: 18.4
stoichiometry N [5]: 4
stoichiometry N [6]: > 3
Molecule: Sso1pHT spin-labeled cysteine mutant at position 269 (from UniProt P32867 185-290) (domain or fragment)

B1: Sso1pHT I273C, spin-labeled (domain or fragment, yeast, UniProt P32867 185-290, looked up)
chain: EAKTALAEVQARHQELLKLEKSMAELTQLFNDMEELVIEQQENVDVIDKNVEDAQLDVEQGVGHTDKAVKSARKARKNKIRAWLIVFACIVVVVVVVVVPAVVKTR
modifications: MTSSL nitroxide spin label on the cysteine at 273
ln K (equilibrium constant of nM to Mn, concentration as protein:lipid ratio) [7]: 18.4
stoichiometry N [7]: 4 and ≥ 3
